We go through 14 molecules from patent US9012420B2, “Aptamer for chymase, and use thereof” (Ribomic Inc., priority 2009, dated 2015).

The target in one series is T1, chymase (Homo sapiens, UniProt P23946).
T1 sequence (P23946 22-247): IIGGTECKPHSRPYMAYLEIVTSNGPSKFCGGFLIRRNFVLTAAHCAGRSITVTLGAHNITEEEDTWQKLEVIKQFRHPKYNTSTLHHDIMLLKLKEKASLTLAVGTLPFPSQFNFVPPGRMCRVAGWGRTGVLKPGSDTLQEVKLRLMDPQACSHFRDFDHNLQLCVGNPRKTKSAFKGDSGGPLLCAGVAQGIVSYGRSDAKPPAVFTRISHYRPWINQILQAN
Nature of the series: Surface plasmon resonance (Biacore T100), aptamer immobilized on SA chip, chymase injected as analyte. In kind it is binding. Details: key: ++: a sequence that binds to chymase significantly more strongly than the negative control 40N; +: a sequence that binds to chymase equivalently compared with the negative control 40N. The settings on record: Table 1; about 1000 RU nucleic acid immobilized, chymase 0.2 μM analyte, running buffer solution A; compared with 40N. The protocol: Binding strength is measured using Biacore T100 (manufactured by GE Healthcare). In a method of measurement, the aptamer is first immobilized onto a sensor chip, the amount immobilized being about 1000 RU. 20 μL of a chymase solution for analyte, prepared at 0.2 μM, is injected, and the binding of chymase to the aptamer is detected. An RNA comprising a random nucleotide sequence of 30 or 40 nucleotides is used as a negative control.
The binding activities against chymase of the nucleic acids shown by SEQ ID NO: 4-20 and 22-34 were determined by the surface plasmon resonance method using Biacore T100 (manufactured by GE Healthcare). The sensor chip used was the SA chip, which had streptavidin immobilized thereon. Bound thereto was about 1500 RU of a 16-nucleotide Poly dT with biotin bound to the 5′ end thereof. […] 20 μL of chymase for analyte, prepared at 0.2 μM, was injected. Solution A was used as a running buffer.
The binding activities against chymase of the nucleic acids shown by SEQ ID NO: 38-48 were evaluated by the surface plasmon resonance method. In the evaluations for SEQ ID NO: 38-48, measurements were taken in the same manner as Example 1. Solution C was used as a running buffer.
On the technique in general: In SPR one partner is held on a chip, and binding of the other changes the refractive index at the surface.

In series [1] the target is T2, chymase (recombinant, manufactured by SIGMA) (Homo sapiens, UniProt P23946).
T2 construct: purchased SIGMA; host or cells: yeast
T2 sequence (P23946 22-247): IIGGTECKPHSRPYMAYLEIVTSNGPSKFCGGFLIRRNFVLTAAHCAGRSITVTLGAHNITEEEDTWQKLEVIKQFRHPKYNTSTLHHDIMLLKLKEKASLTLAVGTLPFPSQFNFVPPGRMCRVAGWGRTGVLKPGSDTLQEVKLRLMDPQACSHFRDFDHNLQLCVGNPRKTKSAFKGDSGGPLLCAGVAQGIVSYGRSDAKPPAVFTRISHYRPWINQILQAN
Nature of the series: Chymase inhibitory activity using synthetic substrate Suc-Ala-Ala-Pro-Phe-MCA. In kind it is biochemical. The following applies: Table 3; substrate 100 μM, solution C, 37° C.; mean value for 2 to 3 measurements. As to the method: A first method employs a synthetic substrate. A useful chymase substrate is Suc-Ala-Ala-Pro-Phe-MCA (4-methylcoumaryl-7-amide group) (manufactured by Peptide Institute, Inc.), which contains the 4-amino acid peptide “Ala-Ala-Pro-Phe”, a standard substrate for chymotrypsin-like proteases.
The assay is performed using a 96-well plate (F16 Black Maxisorp Fluoronunc, manufactured by Nunc), with a reaction mixture volume of 100 μL, in a buffer solution (solution C; see Example 2 below). First, each nucleic acid is prepared in solution C to obtain 50 μL solutions. After 10 μL of the 1 mM substrate prepared in solution C is added, the plate is set to the microplate reader SpectraMax190 (manufactured by Molecular Devices Corporation), and incubated at 37° C. for 5 minutes. Separately, 0.05 μg of chymase (recombinant, manufactured by SIGMA) is diluted in solution C, and 40 μL of this dilution is incubated at 37° C. for 5 minutes. The chymase solution is added to the mixture of the nucleic acid and substrate to initiate an enzyme reaction. The plate containing the reaction mixture is set to the microplate reader SpectraMax190 (manufactured by Molecular Devices Corporation), and examined for time-dependent changes in the fluorescence intensity at 37° C. for 5 minutes (excitation wavelength 380 nm, detection wavelength 460 nm). A linear approximation of the increase in the fluorescence of the AMC (7-amino-4-methylcoumarine) released from the substrate by chymase activity is generated, and its slope is taken as the initial reaction velocity. For control, samples are treated and analyzed in the same manner in two cases: use of a nucleic acid pool containing a random sequence of 30 or 40 nucleotides (negative control), and use of chymostatin, a known chymotrypsin-like serine protease inhibitor (positive control). Taking the initial reaction velocity without the nucleic acid and inhibitor as a 100% enzyme activity, the inhibitory rate for each test substance is calculated, and the inhibitor concentration required to cause a 50% inhibition of the enzyme activity (IC50) is determined.
Whether the nucleic acids shown by SEQ ID NO: 4-20, 22-34, and 38-48 inhibit the enzyme activity of chymase was determined as described below. The chymase substrate used was Suc-Ala-Ala-Pro-Phe-MCA (manufactured by Peptide Institute, Inc.), which contains the 4-amino-acid peptide Ala-Ala-Pro-Phe, a standard substrate for chymotrypsin-like proteases. Here, Suc is a protecting succinyl group, and MCA is a 4-methylcoumaryl-7-amide group; upon cleavage of the C-terminal side of phenylalanine, AMC (7-amino-4-methylcoumarine) is released. By detecting the fluorescence of this AMC, the enzyme activity of chymase can be determined. The assay was performed using a 96-well plate (F16 Black Maxisorp Fluoronunc, manufactured by Nunc), with a reaction mixture volume of 100 μL, in solution C as a buffer solution. First, each nucleic acid was serially diluted to 0.0027-2 μM concentrations in solution C to obtain 50 μL solutions. After 10 μL of the 1 mM substrate prepared in solution C was added thereto, the plate was set to the microplate reader SpectraMax190 (manufactured by Molecular Devices Corporation), and incubated at 37° C. for 5 minutes. Separately, 0.05 μg (or 0.005 μg) of chymase (recombinant, manufactured by SIGMA) was diluted in solution C to obtain a 40 μL chymase solution, and incubated at 37° C. for 5 minutes. The chymase solution was added to the mixture of the nucleic acid and substrate to initiate an enzyme reaction. The final chymase concentration in the reaction mixture was 16.7 nM (or 1.67 nM), the final substrate concentration being 100 μM. The plate containing the reaction mixture was set to the microplate reader SpectraMax190 (manufactured by Molecular Devices Corporation), and examined for time-dependent changes in the fluorescence intensity at 37° C. for 5 minutes (or 30 minutes) (excitation wavelength 380 nm, detection wavelength 460 nm). […]

Oligonucleotides are written 5' to 3', each unit as a sugar letter and its base; * is a phosphorothioate linkage, no mark a phosphodiester; rarer units and linkages stand in square brackets, end groups in braces. Plain capitals give the bases only. r = 2'-OH (RNA); f = 2'-fluoro Some results are limits rather than exact numbers.

B1: 20 (nucleic acid)
chain: rGrGrGrAfCrGrGfUrArGrGrArAfUfUfCrArArArAfUfCrArGfCfUrGrAfUfUfUrGfUrArAfUfUfUfUfUfUfUrAfCrAfCrArGrGfCrArArArAfCrAfCrAfUrArGrArArGrArGfCrGrGfCfCrGfC
modifications: aptamer
For B1, in the series with chymase, the “Binding activity as determined using Biacore” value (shortened to “Binding activity as determined”) is given as “+”. The IC50 (usually the concentration that gives 50% inhibition) in series [1] is 282 ± 13 nM.

B2: 22 (nucleic acid)
chain: rGrGrGrAfCrGrGfUrArGrGrArAfUfUfCfCfCrGrAfCrAfCrArArArAfUrGfUrGfUrGrAfUfUrArAfUfUfCfCrGrArAfCrArAfCrArArArGfUrArAfCrAfUrArGrArArGrArGfCrGrGfCfCrGfC
modifications: aptamer
Turning to B2, in the series with chymase, the “Binding activity as determined” value is “+”. Further, the IC50 in series [1] was 105 ± 9 nM.

B3: 23 (nucleic acid)
chain: rGrGrGrAfCrGrGfUrArGrGrArAfUfUfCrAfUrAfUrGfUrAfCfUfCfCrGfUfCfCfUrGrAfCrArArArAfUrGfUfCrArAfUrGrAfCrArArAfCrGfUfUfCrAfUrArGrArArGrArGfCrGrGfCfCrGfC
modifications: aptamer
Turning to B3, the “Binding activity as determined” value with chymase is “++”. The concentration for half-maximal inhibition (IC50) in series [1] was determined as 238 ± 60 nM.

B4: 24 (nucleic acid)
chain: rGrGrGrAfCrGrGfUrArGrGrArAfUfUfCfCfCfUfUfCrAfUrArGfUrArGrArAfUrGfUfUrGrGfUfUfUfCfUrAfCrArArArArGfCrGrAfCrArArGfCrAfUrArGrArArGrArGfCrGrGfCfCrGfC
modifications: aptamer
Take B4: the “Binding activity as determined” value with chymase was “++”. In addition, the concentration for half-maximal inhibition (IC50) in series [1] turned out to be 92 ± 3 nM.

B5: 19 (nucleic acid)
chain: rGrGrGrAfCrGrGfUrArGrGrArAfUfUfCfCfCrAfCfUrGfCrArAfUfUfCrArGfCrArGrArArArArArAfUfUfCfCrGrArArArArAfCrAfCrAfCrAfCfCrAfUrArGrArArGrArGfCrGrGfCfCrGfC
modifications: aptamer
Turning to B5, the “Binding activity as determined” value with chymase is “++”. Moreover, the IC50 in series [1] was 163 ± 1 nM.

B6: 27 (nucleic acid)
chain: rGrGrGrAfCrGrGfUrArGrGrArAfUfUfCfCrGfUfCrAfUfCrGrGfUfUrGfCrArArAfUfUrGrArArArAfUrAfCrArArArAfCrArArGrGrAfCrArAfCfCrAfUrArGrArArGrArGfCrGrGfCfCrGfC
modifications: aptamer
B6: the “Binding activity as determined” value with chymase is “++”. Moreover, in series [1], the concentration for half-maximal inhibition (IC50) is more than 500 nM.

B7: 26 (nucleic acid)
chain: rGrGrGrAfCrGrGfUrArGrGrArAfUfUfCrGfUfCrGrAfUfUfCfUrAfCrArGrAfUrArGrArGrAfUrArArArGfUrArGrArAfUfUfUrArAfCrArArArAfCrAfUrArGrArArGrArGfCrGrGfCfCrGfC
modifications: aptamer
B7: the “Binding activity as determined” value in the series with chymase was “++”. Further, the IC50 in series [1] was determined as 106 ± 4 nM.

B8: 17 (nucleic acid)
chain: rGrGrGrAfCrGrGfUrArGrGrArAfUfUfCfCrGfUfUfCrGfCrArGrArArAfCrGrArAfCfUfUfUfUrArArArArArAfUrGfUrAfCrGfUrGrGrGrArGfCrAfCrAfUrArGrArArGrArGfCrGrGfCfCrGfC
As to B8, the “Binding activity as determined” value with chymase is on record as “++”. The IC50 in series [1] was 92 ± 42 nM.

B9: 28 (nucleic acid)
chain: rGrGrGrAfCrGrGfUrArGrGrArAfUfUfCrArAfUfUfUfCfUfUfUfCfUrAfUfUfCfUfCrAfCfCfUrGrArGfUrAfUrAfUfCrArGrGfCrAfCrArGfUrAfCrAfUrArGrArArGrArGfCrGrGfCfCrGfC
modifications: aptamer
Regarding B9, the “Binding activity as determined” value with chymase is listed as “+”. In addition, in series [1], the half-inhibitory concentration (IC50) is 45 ± 4 nM.

B10: 29 (nucleic acid)
chain: rGrGrGrAfCrGrGfUrArGrGrArAfUfUfCrAfCrGrAfCfCrGfCfCfCrArArArArArAfUrGrGfUrGrAfCrAfUfUfUfUrArGrArArAfCrAfCfCrGrArAfCrAfUrArGrArArGrArGfCrGrGfCfCrGfC
modifications: aptamer
On to B10, for which the “Binding activity as determined” value in the series with chymase is “++”. Also, the IC50 in series [1] was more than 500 nM.

B11: 16 (nucleic acid)
chain: rGrGrGrAfCrGrGfUrArGrGrArAfUfUfCfCfCrAfUrGrAfCfUrGrArArArArAfCrGfUfCrArGfUrArArArAfUfCfCrGrArArArAfUfCrAfUrAfUfCrAfUrArGrArArGrArGfCrGrGfCfCrGfC
modifications: aptamer
With B11, the “Binding activity as determined” value with chymase is given as “++”. The half-inhibitory concentration (IC50) in series [1] was more than 500 nM.

B12: 18 (nucleic acid)
chain: rGrGrGrAfCrGrGfUrArGrGrArAfUfUfCrGrArAfCrGrAfCrArArAfUfUrAfUrArGrArAfCfUfUfCrGfUfUfUrGrAfCrAfUfUfCfCrAfCrAfCfCrAfCrAfUrArGrArArGrArGfCrGrGfCfCrGfC
modifications: aptamer
Take B12: the “Binding activity as determined” value with chymase was “++”. In series [1], the IC50 is 58 ± 21 nM.

B13: 25 (nucleic acid)
chain: rGrGrGrAfCrGrGfUrArGrGrArAfUfUfCrArGfCfUrGrAfCfUfCfCrArAfUrGfCrAfCrAfCrGfUrArGrAfUrArGrArGfUfUrArArArAfCrGfUfUrGfCrAfUrArGrArArGrArGfCrGrGfCfCrGfC
modifications: aptamer
Take B13: in the series with chymase, the “Binding activity as determined” value is “++”. Moreover, in series [1], the IC50 is 79 ± 28 nM.

B14: 30 (nucleic acid)
chain: rGrGrGrAfCrGrGfUrArGrGrArAfUfUfCrGfUfCfCfCfUfCfUfUrGfUfCfUrAfUfUfUfUrGfCrArGrAfUrArGrAfCfUfUrArArArGfCrArArAfCrAfUrArGrArArGrArGfCrGrGfCfCrGfC
In the case of B14, in the series with chymase, the “Binding activity as determined” value was “++”. Also, the IC50 in series [1] is 147 ± 44 nM.
